Experimental data reported in US12491259B2, “Anti-variable MUC1* antibodies and uses thereof” (Minerva Biotechnologies Corporation, priority 2022, dated 2025).

Test system: high antigen (MUC1*) expressing cancer cells
Assay: PrestoBlue plate reader killing assays over multiple cancer sub-types (FIGS. 38A-45D)
Assay type: cell-based
Conditions: breast (T47D-MUC1*) and pancreatic (HPAF II-MUC1*) cancer cells
Experimental: Therefore, although seldom done, it is critically important to test anti-cancer therapeutics against both the low antigen expressing early cancer cells and the later cancer cells that express high levels of the targeted antigen. In FIGS. 38A-45D, the ability of MNC2-ADCs and MN20A10-ADCs to kill multiple cancer sub-types was tested, where the tumors were either low-medium antigen expressing cancer cells or high antigen expressing cancer cells. […] The low expressing cancer cells were killed by treatment with either MNC2-ADC or MN20A10-ADC in the high nanomolar range of ADC, which is considered druggable. The cancer cells that expressed high levels of MUC1* were killed with IC50s in the single digit nanomolar range. […]
Another method of measuring the killing activity of mAb MNC2-ADCs and mAb MN20A10-ADCs against target cancer cells including T47D breast cancer cells NCI-H1975 non-small cell lung cancer cells and HPAFII pancreatic cancer cells is to use the PrestoBlue live/dead cell assay (ThermoFisher). […] After 72 hour-120 hour incubation in a 37° C./5% CO2 incubator, cell viability was measure by fluorescence using the PrestoBlue HS assay (ThermoFisher). […] Fluorescence (Ex 560 nm/Em 590 nm) was recorded after 30-90 min. incubation using a Tecan plate reader. Percentage viability was determined by PrestoBlue HS staining and normalized to 1 μM taxol treated cells. […]

B1: MNC2-MMAF (conjugate)
VH: EVQLVESGGGLVKPGGSLRLSCAASGFTFSGYAMSWVRQAPGKGLEWVSTISSGGTYIYYPDSVKGRFTISRDNAKNSLYLQMNSLRAEDTAVYYCARLGGDNYYEYFDVWGKGTTVTVSS
VL: DIVLTQSPASLAVSPGQRATITCRASKSVSTSGYSYMHWYQQKPGQPPKLLIYLASNLESGVPARFSGSGSGTDFTLTINPVEANDTANYYCQHSRELPFTFGGGTKVEIKRT
- concentrations at which cells engineered to express more MUC1* were killed: very low nanomolar concentrations

B2: MN20A10-MMAF (conjugate)
VH: QVQLVESGGGLVKPGGSLRLSCAASGFTFSTYAMSWIRQAPGKGLEWVASIGRAGSTYYSDSVKGRFTISRDNAKNSLYLQMNSLRAEDTAVYYCARGPIYNDYDEFAYWGQGTLVTVSS
VL: EIVLTQSPATLSLSPGERATLSCKSSQSVLYSSNQKNYLAWYQQKPGQAPRLLIYWASTRESGIPARFSGSGSGTDFTLTISSLEPEDFAVYYCHQYLSSLTFGGGTKVEIKR
- concentrations at which cells engineered to express more MUC1* were killed: very low nanomolar concentrations
